Assay results reported in patent US6790824B1, “Cytokines having neurotrophic activity” (Biopharm Gesellschaft zur biotechnologischen Entwicklung …, priority 1997, dated 2004).

Experiments:
[1] = test system: embryonic chicken dorsal root ganglia (DRG) neurons; test: Survival of dissociated embryonic chick dorsal root ganglia (DRG) neurons, 48 h, counting of surviving neurons; assay type: cell-based
Description: Dissociated cultures of embryonic chicken dorsal root ganglia (DRG) were generated as described in details by Krieglstein and Unsicker (Neurochem. Res., 21(7) (1996) 843-850). Briefly, DRGs from white Leghorn chick embryos (day 8) were dissected in Ca^2+-Mg^2+ free Hanks' balanced salt solution. After incubation in 0.08% trypsin for 15 min ganglia were dissociated by trituration. Cells were seeded in polyomithin-laminin coated 96-well microtiter plates (A/2 Costar) at a density of 1,200 cells/well. Growth factors were applied at the time of plating in a final volume of […] Dulbecco's Modified Eagle's Medium supplemented with 0.25% bovine serum albumin, N1 additives and 100 U/ml penicillin. As a positive control, nerve growth factor (NGF) was used at the saturating concentration of 5 ng/ml. After 48 h of incubation at 37° C. in a humidified atmosphere containing 5% CO2, cultures were fixed with 2.5% glutaraldehyde. Neuronal cells were identified by their phase-bright and neurite-bearing morphologies and counted within 30% of the total surface area using phase contrast microscopy. In the first set of experiments we tested the survival promoting effect of several growth factors of the bone morphogenetic protein family.
(§1) Embryonic chick ciliary (CG), dorsal root (DRG), and sympathetic (SG) ganglia at embryonic day(s) (E) 8, 10, and 12, were dissected, freed from nerve roots and connective tissue and collected in CME. Ganglia were incubated in trypsin (ICN), washed and dissociated by trituration using fire-polished Pasteur pipettes. Cultures were set up in 96-well microtiter plates (Costar, A/2), precoated with poly-L-ornithine and laminin at a density of 1,200-1,500 cells/well in DMEM supplemented with N1 additives, 0.25% BSA, and 0.1% PSN (DME/N1) and incubated at 37° C. in a 5% CO2 incubator.
(§2) At appropriate times (CG: 24 h, DRG: 48 h, SG: 72 h) cultures were fixed by addition of 2.5% glutardialdehyde in phosphate buffered saline (PBS). Numbers of surviving neurons were determined by direct counting of 30% of the surface area using phase contrast microscopy.
Dissociated cultures of embryonic chicken dorsal root ganglia (DRGs) were generated as described in details by Krieglstein and Unsicker (Dev. Brain. Rees. 93 (1996) 10-17). Briefly, DRGs were dissected in Ca^2+-Mg^2+ free Hank's balanced salt solution (CMF). After incubation in 0.08% trypsin (BioWhittaker) for 15 min, ganglia were dissociated by gentle trituration using fire-polished Pasteur pipettes. Cells in suspension (neuron/non-neuron ratio 1:2) were seeded in polyomithin-laminin coated 96-well microtiter plates (A/2 Costar) at a density of 1,200 cells/well. Growth factors were applied at the time of plating in a final volume of 50 μl Dulbecco's Modified Eagle's Medium supplemented with 0.25% bovine serum albumin, N1 additives (Bottenstein et al., Exp. Cell Res. 125 (1980) 183-190) and 100 U/ml penicillin. As a positive control, nerve growth factor (NGF) was used at the saturating concentration of 10 ng/ml. After 48 h of incubation at 37° C. in a humidified atmosphere containing 5% CO2, cultures were fixed with 2.5% glutaraldehyde in phosphate buffered saline (PBS). Neuronal cells were identified by their phase-bright and neurite-bearing morphologies and counted within 30% of the total surface area using phase contrast microscopy. All experiments were performed in at least triplicate in two independent experiments. Data are presented as mean±SEM. Statistical comparisons were made with student's double t-test, ANOVA and MicrocalOrigin software. Differences were considered statistically significant at *P<0.05, **P<0.01, **P<0.001.

[2] = test system: chick ciliary ganglionic (CG) neurons; test: Survival of embryonic chick ciliary ganglionic (CG) neurons, 24 h, counting of surviving neurons; assay type: cell-based
Description: as §1, §2
Phosphatidylinositol-specific phospholipase C (PIPLC) is an enzyme that specifically cleaves glycosyl-phosphatidylinositol (GPI) linkages. Embryonic chick ciliary ganglionic neurons (E8) were isolated and seeded as described before. Neurons were incubated for 1 h at 37° C. with 1) 100 mU PIPLC or II) 100 mU PIPLC+2 ng/ml TGFβ or III) without enzyme and then growth factors were added. The number of surviving neurons was determined 24 h later.

[3] = test system: chick sympathetic ganglionic (SG) neurons; test: Survival of embryonic chick sympathetic ganglionic (SG) neurons, 72 h, counting of surviving neurons; assay type: cell-based
Description: as §1, §2

[4] = test system: rat embryonic mesencephalic dopaminergic neurons (E14); test: Survival of rat embryonic mesencephalic dopaminergic neurons, count of tyrosine hydroxylase (TH) immunoreactive neurons after 8 days; assay type: cell-based; conditions: GDNF 10 ng/ml, TGF-β3 2 ng/ml, 8 days in culture
Description: FIG. 8 depicts the survival promoting effect of GDNF on rat embryonic mesencephalic dopaminergic neurons (E14) is dependent on the presence of TGF-β. Dissociated cultures were treated with GDNF (10 ng/ml), with GDNF in the presence of anti-TGF-β1, -β2, -β3 (10 μg/ml), with TGF-β3 (2 ng/ml) or without any growth factor added (control) for 8 days in culture. Numbers of dopaminergic neurons were determined by counting the numbers of tyrosine hydroxylase (TH) immunoreactive neurons.

[5] = test system: preganglionic neurons to the adrenal medulla; test: Preganglionic neuron protection in vivo after adrenomedullectomy; design: species or system rat; conditions: adult rats, 1 μg GDNF in gelfoam into the medullectomized adrenal gland, four weeks
Description: This type of target deprivation causes the death of all preganglionic neurons to the adrenal medulla at four weeks, as previously shown by Blottner and Baumgarten (Exp. Neurol. 118 (1992) 35-46).
Adrenomedullectomy was performed on adult male Hanover-Wistar rats. Preganglionic neurons in the spinal cord innervating adrenal medullary chomaffin cells were identified by retrograde tracing with Fast Blue or Fluoro-Gold (FG). Factors (1 μg each) were soaked in gelfoam (Spongostan, Ferrosan, Soeburg, Denmark) prior to implantation into unilaterally medullectomized adrenal glands. Numbers of FG-labeled preganglionic neurons were determined by cell counts of complete series of longitudinal sections through spinal cord segments T7-T10 four weeks post-surgery. Only brightly fluorescent neurons containing a clearly visible nucleus were counted. Total numbers were corrected for possible double counts of split nuclei according to Abercombie's formula. Numbers of preganglionic neurons to the adrenal medulla surviving in sham-operated animals and on the unlesioned side were set as 100%. Data are given as mean values±SEM and the statistical significance of intergroup differences was determined by Student's t-test.

[6] = test system: embryonic chicken dorsal root ganglia (DRG) neurons; test: Survival of dissociated embryonic chick dorsal root ganglia (DRG) neurons, 48 h, counting of surviving neurons; assay type: cell-based; conditions: E8, 10% horse serum, saturating GDNF; compared with NGF in serum-free medium
[7] = E8, serum-free, factor added by itself

B1: GDNF: rh GDNF, neurotrophic factor, member of the TGF-β superfamily (protein, UniProt P39905 78-211, looked up)
Glial cell line-derived …: SPDKQMAVLPRRERNRQAAAANPENSRGKGRRGQRGKNRGCVLTAIHLNVTDLGLGYETKEELIFRYCSGSCDAAETTYDKILKNLSRNRRLVSDKVGQACCRPIAFDDDLSFLDDNLVYHILRKHSAKRCGCI
DRG neuron survival, single factor in serum-free medium [1, 7]: virtually no survival promoting effect | effect on DRG neuron survival when added together with GDF-5 ([1]; factor at saturating concentration plus GDF-5 20 ng/ml, E8, 48 h): synergistic or additive effects | CG neuron survival with GDNF supplemented with 10% horse serum ([2]; E8, 24 h, compared with CNTF 5 ng/ml): as effectively as a saturating concentration of CNTF | EC50 of the synergistic survival effect ([2]; factor titrated in combination with 2 ng/ml of the other factor (GDNF/TGF-β), serum-free): 0.06 ng/mL | CG neuron survival, single factor in fully-defined medium ([2]; serum-free, each at the saturating amount of 2 ng/ml): only marginal survival promoting effects | SG neuron survival with GDNF in serum containing medium ([3]; E8, 10% horse serum, saturating GDNF, compared with NGF in serum-free medium): levels identical to those achieved by addition of the respective neurotrophic factor | SG neuron survival, single factor in serum-free medium [3, 7]: virtually no survival promoting effect | survival of dopaminergic neurons relative to untreated control cultures [4]: 160% | protection of preganglionic neurons after adrenomedullectomy [5]: fully protected the neurons | DRG neuron survival with GDNF in serum containing medium [6]: levels identical to those achieved by addition of the respective neurotrophic factor
